According to the supplement of paper PMC11246515:
± gives the standard deviation of the averaged measurements.

Test: total protein half-life in vivo (active degradation + dilution); higher = more stable protein
[1] = E. coli NCM3722 delta-clpP delta-lon delta-hslV, growth: N-lim chemostat, doubling time 6 h
[2] = E. coli NCM3722 delta-lon, growth: N-lim chemostat, doubling time 6 h
[3] = E. coli NCM3722 delta-smpB, growth: N-lim chemostat, doubling time 6 h
[4] = wild type E. coli NCM3722, growth: C-lim chemostat, doubling time 3 h
[5] = wild type E. coli NCM3722, growth: C-lim chemostat, doubling time 6 h
[6] = wild type E. coli NCM3722, growth: C-lim chemostat, doubling time 12 h
[7] = wild type E. coli NCM3722, growth: N-lim chemostat, doubling time 6 h
[8] = wild type E. coli NCM3722, growth: N-lim chemostat, doubling time 12 h
[9] = wild type E. coli NCM3722, growth: P-lim chemostat, doubling time 6 h
[10] = wild type E. coli NCM3722, growth: P-lim chemostat, doubling time 12 h
[11] = E. coli NCM3722 delta-clpP, growth: N-lim chemostat, doubling time 6 h
[12] = E. coli NCM3722 delta-hslV, growth: N-lim chemostat, doubling time 6 h

| Sequence | total protein half-life in vivo [1] | total protein half-life in vivo [2] | total protein half-life in vivo [3] | total protein half-life in vivo [4] | total protein half-life in vivo [5] | total protein half-life in vivo [6] | total protein half-life in vivo [7] | total protein half-life in vivo [8] | total protein half-life in vivo [9] | total protein half-life in vivo [10] | total protein half-life in vivo [11] | total protein half-life in vivo [12] |
| --- | --- | --- | --- | --- | --- | --- | --- | --- | --- | --- | --- | --- |
| MFKKILFPLVALFMLAGCAKPPTTIEVSPTITLPQQDPSLMGVTVSINGADQRTDQALAKVTRDNQIVTLTASRDLRFLLQEVLEKQMTARGYMVGPNGPVNLQIIVSQLYADVSQGNVRYNIATKADIAIIATAQNGNKMTKNYRASYNVEGAFQASNKNIADAVNSVLTDTIADMSQDTSIHEFIKQNAR [P0ADA5] | 6.32 ± 1.6 h | 6.15 ± 0.68 h | 5.86 ± 0.59 h | > 4 h | 7.64 ± 0.29 h | 12.6 ± 0.17 h | 6.36 ± 0.12 h | 13 ± 0.98 h | 6.254 ± 0.035 h | 14.94 ± 0.13 h | – | – |
| MFKSFFPKPGTFFLSAFVWALIAVIFWQAGGGDWVARITGASGQIPISAARFWSLDFLIFYAYYIVCVGLFALFWFIYSPHRWQYWSILGTALIIFVTWFLVEVGVAVNAWYAPFYDLIQTALSSPHKVTIEQFYREVGVFLGIALIAVVISVLNNFFVSHYVFRWRTAMNEYYMANWQQLRHIEGAAQRVQEDTMRFASTLENMGVSFINAIMTLIAFLPVLVTLSAHVPELPIIGHIPYGLVIAAIVWSLMGTGLLAVVGIKLPGLEFKNQRVEAAYRKELVYGEDDATRATPPTVRELFSAVRKNYFRLYFHYMYFNIARILYLQVDNVFGLFLLFPSIVAGTITLGLMTQITNVFGQVRGAFQYLINSWTTLVELMSIYKRLRSFEHELDGDKIQEVTHTLS [P0AFY6] | 5.51 ± 0.24 h | 5.41 ± 0.43 h | 5.52 ± 0.15 h | – | 4.97 ± 1.2 h | 11.3 ± 1.3 h | – | 8.73 ± 0.38 h | 5.77 ± 0.34 h | – | 5.35 ± 0.061 h | 5.4 ± 0.62 h |
| MFKSTLAAMAAVFALSALSPAAMAAKGDPHVLLTTSAGNIELELDKQKAPVSVQNFVDYVNSGFYNNTTFHRVIPGFMIQGGGFTEQMQQKKPNPPIKNEADNGLRNTRGTIAMARTADKDSATSQFFINVADNAFLDHGQRDFGYAVFGKVVKGMDVADKISQVPTHDVGPYQNVPSKPVVILSAKVLP [P0AFL3] | 5.17 ± 0.94 h | 6.04 ± 0.29 h | 5.59 ± 0.8 h | 3.1 ± 0.19 h | 4.98 ± 0.6 h | 8.28 ± 1.4 h | 5.46 ± 0.15 h | 10.36 ± 0.074 h | 5.31 ± 0.43 h | 11.5 ± 0.59 h | – | – |
| MFLIITRDTMFFTAMKNILSKGNVVHIQNEEEIDVMLHQNAFVIIDTLMNNVFHSNFLTQIERLKPVHVIIFSPFNIKRCLGKVPVTFVPRTITIIDFVALINGSYCSVPEAAVSLSRKQHQVLSCIANQMTTEDILEKLKISLKTFYCHKHNIMMILNLKRINELVRHQHIDYLV | 3.86 ± 0.062 h | 3.74 ± 0.092 h | 3.036 ± 0.0077 h | – | – | – | 2.94 ± 0.13 h | 8.12 h | – | 4.78 h | 3.81 h | 3.24 ± 0.28 h |
| MFLINGHKQESLAVSDRATQFGDGCFTTARVIDGKVSLLSAHIQRLQDACQRLMISCDFWPQLEQEMKTLAAEQQNGVLKVVISRGSGGRGYSTLNSGPATRILSVTAYPAHYDRLRNEGITLALSPVRLGRNPHLAGIKHLNRLEQVLIRSHLEQTNADEALVLDSEGWVTECCAANLFWRKGNVVYTPRLDQAGVNGIMRQFCIRLLAQSSYQLVEVQASLEESLQADEMVICNALMPVMPVCACGDVSFSSATLYEYLAPLCERPN | 5.13 ± 0.82 h | 4.279 ± 0.035 h | 3.89 ± 0.18 h | 3.04 ± 0.24 h | 5.58 ± 0.27 h | 10.9 ± 0.86 h | 3.82 ± 0.069 h | 6.33 ± 0.35 h | 6.45 ± 1.4 h | 10.7 ± 1 h | 3.87 ± 0.15 h | – |
| MFLVDSHCHLDGLDYESLHKDVDDVLAKAAARDVKFCLAVATTLPGYLHMRDLVGERDNVVFSCGVHPLNQNDPYDVEDLRRLAAEEGVVALGETGLDYYYTPETKVRQQESFIHHIQIGRELNKPVIVHTRDARADTLAILREEKVTDCGGVLHCFTEDRETAGKLLDLGFYISFSGIVTFRNAEQLRDAARYVPLDRLLVETDSPYLAPVPHRGKENQPAMVRDVAEYMAVLKGVAVEELAQVTTDNFARLFHIDASRLQSIR [P0AFQ7] | 4.81 ± 0.12 h | 3.76 ± 0.27 h | 2.97 ± 0.21 h | 2.46 ± 0.053 h | 4.73 ± 0.61 h | 9.89 ± 2.7 h | 3.63 ± 0.31 h | 5.34 ± 1.1 h | 4.39 ± 0.14 h | 7.55 ± 0.79 h | 3.33 ± 0.04 h | 3.06 ± 0.22 h |
| MFNGRPFPVDAFPKIIRNAIYEVEQHTQAPQGLIAASALGVISLACQNRIDVCRLNNLRGPVSLFLMTLAESGERKSTVDKLLMKPLYQLEEDLFEKYTHDLTAWRNDEAIFNIEKKALMSKLKSDIRRNKDHLATNERLKELLTTNPKAPVRFKFLFNDATPAAIKAHLCGHWRSVGIMSDEAGIIFNGYTLNELPFINKMWDGSIFTVERKNEPEKLIRDARITLSLMVQPNVFKGYIDRKGDMAKGIGFFARCLMCQPASTQGNRKISNPIFSNEHLPVFHQRLMEIVNESIIKINENNRICLRFSAEAERHWIEFYNQVESEMRMIGLLYDFKDYASKMAENMARLAALLHYFSGDGGDISVTAVKAAVEIVAWYIEEYIRLFSKKEEFSLDVSEADELYCWIKDYCTQKFSSCIKKNIILQFGPNKFRNRDKANELIRILISQNKIFISSWGKTKIINITHCVF | 4.5 h | – | – | – | – | – | – | – | – | – | – | – |
| MFNNILVVCVGNICRSPTAERLLQRYHPELKVESAGLGALVGKGADPTAISVAAEHQLSLEGHCARQISRRLCRNYDLILTMEKRHIERLCEMAPEMRGKVMLFGHWDNECEIPDPYRKSRETFAAVYTLLERSARQWAQALNAEQV [P0AAB2] | 5.46 h | 1.13 h | – | – | – | – | – | – | – | – | – | – |
| MFNRIRISTTLFLILILCGILQIGSNGMSFWAFRDDLQRLNQVEQSNQQRAALAQTRAVMLQASTALNKAGTLTALSYPADDIKTLMTTARASLTQSTTLFKSFMAMTAGNEHVRGLQKETEKSFARWHNDLEHQATWLESNQLSDFLTAPVQGSQNAFDVNFEAWQLEINHVLEAASAQSQRNYQISALVFISMIIVAAIYISSALWWTRKMIVQPLAIIGSHFDSIAAGNLARPIAVYGRNEITAIFASLKTMQQALRGTVSDVRKGSQEMHIGIAEIVAGNNDLSSRTEQQAASLAQTAASMEQLTATVGQNADNARQASELAKNAATTAQAGGVQVSTMTHTMQEIATSSQKIGDIISVIDGIAFQTNILALNAAVEAARAGEQGRGFAVVAGEVRNLASRSAQAAKEIKGLIEESVNRVQQGSKLVNNAAATMIDIVSSVTRVNDIMGEIASASEEQQRGIEQVAQAVSQMDQVTQQNASLVEEAAVATEQLANQADHLSSRVAVFTLEEHEVARHESVQLQIAPVVS | – | – | > 8 h | 1.87 ± 0.38 h | 3.01 ± 0.33 h | 4.13 ± 0.71 h | – | – | – | – | 6.16 h | – |
